According to patent publication US20130133108A1, “EXTRACTS FROM PIRIN+ AND PIRIN- PLANTS AND USES THEREOF” (priority 2010, published 2013):

T1: In vitro-translated AtGPA1 pre-incubated with GTPgammaS (permanently activated conformation) (Arabidopsis thaliana, UniProt P18064 1-383)
T1 construct: Same polypeptide as m3 but a different nucleotide state; also called GPA1-GTPgammaS
T1 sequence (looked up): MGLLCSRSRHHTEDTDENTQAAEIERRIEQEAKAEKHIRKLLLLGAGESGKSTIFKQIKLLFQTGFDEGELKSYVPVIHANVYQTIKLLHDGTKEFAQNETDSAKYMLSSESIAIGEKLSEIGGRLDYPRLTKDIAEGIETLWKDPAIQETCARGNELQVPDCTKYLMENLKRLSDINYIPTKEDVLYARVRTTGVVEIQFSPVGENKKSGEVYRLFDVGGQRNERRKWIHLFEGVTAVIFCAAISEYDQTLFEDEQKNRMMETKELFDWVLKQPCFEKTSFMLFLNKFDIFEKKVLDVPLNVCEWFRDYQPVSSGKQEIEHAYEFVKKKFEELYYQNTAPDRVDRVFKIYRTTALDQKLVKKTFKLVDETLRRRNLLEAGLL

T2: In vitro-translated AtGPA1 pre-incubated with GDPalphaS (permanently inactive conformation) (Arabidopsis thaliana, UniProt P18064 1-383)
T2 construct: Same polypeptide as m2 but a different nucleotide state; also called GPA1-GDPalpha
T2 sequence (looked up): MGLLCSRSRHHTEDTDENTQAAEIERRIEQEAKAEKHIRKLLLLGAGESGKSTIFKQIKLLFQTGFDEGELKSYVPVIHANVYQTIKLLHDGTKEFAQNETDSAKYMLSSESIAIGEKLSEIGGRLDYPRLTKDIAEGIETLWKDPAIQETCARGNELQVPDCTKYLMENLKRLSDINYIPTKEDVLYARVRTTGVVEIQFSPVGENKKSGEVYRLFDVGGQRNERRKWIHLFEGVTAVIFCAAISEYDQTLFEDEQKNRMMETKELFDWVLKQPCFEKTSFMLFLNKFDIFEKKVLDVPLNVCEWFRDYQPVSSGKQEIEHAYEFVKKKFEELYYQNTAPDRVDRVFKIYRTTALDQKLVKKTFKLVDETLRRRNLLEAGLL


What was measured:
[1] = system: animal cells; settings: reported, no source named; cited from earlier work
[2] = Quercetinase (quercetin 2,3-dioxygenase) activity of in vitro-translated AtPirin1, absorbance spectrum; format: biochemical, Arabidopsis thaliana
Protocol: Full-length PIRIN1 template was prepared, amplified and purified by the methods described (Lapik and Kaufman, Plant Cell. 15(7):1578-90, 2003; Warpeha et al., Plant Physiol. 140:844-55, 2006). Pirin1 proteins were individually produced by coupled in vitro transcription/translation using TNT T7 Coupled Wheat Germ Extract System (Promega; Madison, Wis.) as directed and as modified previously (Warpeha et al., Plant Physiol. 140:844-55, 2006). Translated Pirin1 was subsequently incubated with quercetin in complete darkness in a 26° C. circulating water bath for 15 minutes.
The quercetin 2,3-dioxygenase activity of Pirin1 was determined as described in Adams and Jai (J. Biol. Chem. 280(31):28675-82, 2005). Briefly, the quercetin 2,3-dioxygenase activity of pirin wase assayed at 295 K for 5 min in a reaction mixture containing 50 mm NaH2PO4, pH 8.0, 300 mm NaCl, 60 μm quercetin in Me2SO, and 18.5 nm enzyme. Activity was observed by following the decrease in the absorbance maximum for quercetin, which occurs at 384 nm at pH 8.0. The inhibitors kojic acid, sodium diethyldithiocarbamate, and 1,10-phenanthroline monohydrochloride were dissolved in Me2SO and added to the reactions at a final concentration of 50 nm.
(§1) Translated Pirin1 was prepared as described above and in vitro association assays were conducted in assay buffer (pre-incubations included magnesium) at 26° C. (Adams and Jai, J. Biol. Chem. 280(31):28675-82, 2005; Warpeha et al., Plant Physiol. 140:844-55, 2006). GPA1 was incubated with Pirin1 in a 1:1 ratio. “Activated” Pirin1 was achieved by pre-incubation with 100 μM GTPγS (a non-hydrolysable GTP analog). “Inactivated” Pirin1 was achieved by pre-incubation with GDP, or GDPγS (a non-hydrolysable GDP analog). Both pre-incubations occurred overnight in darkness at 10° C.

[3] = biological target: T1, In vitro-translated AtGPA1 …; assay: in vitro association/activity assay, GPA1:Pirin1 1:1, interaction inferred from loss of quercetinase activity
Protocol: as §1
(§2) The observed AtPirin1 quercetinase activity is regulated through its' interactions with GPA. […] AtGPA1 bound to one of the two non-hydrolyzable analogs was then incubated with AtPirin1 and quercetin in conditions identical to that for FIG. 1.

[4] = biological target: T2, In vitro-translated AtGPA1 …; assay: in vitro association/activity assay, GPA1:Pirin1 1:1, association inferred from the quercetin absorbance spectrum
Protocol: as §1, §2

Molecule | concentration considered toxic in animal cells [1] | quercetinase activity with activated conformation of AtGPA1 ([2]; AtGPA1 pre-incubated with GTPγS, FIG. 2) | absorbance peak of quercetin with AtPirin1 and inactivated conformation of AtGPA1 ([2]; AtGPA1 pre-incubated with non-hydrolysable GDP analog, FIG. 2) | quercetinase activity (cleavage of quercetin) ([2]; AtPirin1 alone with quercetin, 15 min at 26° C., FIG. 1) | absorbance peak of quercetin after addition of AtPirin1 ([2]; AtPirin1 alone, within 15 min at 26° C., quercetin alone 384 nm) | binding result [3] | binding result [4]
O=c1c(O)c(-c2ccc(O)c(O)c2)oc2cc(O)cc(O)c12 [quercetin] | above 20 μM | – | – | – | – | – | –
Arabidopsis thaliana Pirin1 (AtPirin1), in vitro-translated (enzyme, also called PRN1; Prn1) MTYENNSVPRIVIKKVLAKLEKEGEGAVVRNGITKIDQKLLDPFVLLVEFSFSLSAGFPDHPHRGFESVTYMLQGGIIHKDPKGHKGTIQAGDVQWMTAGRGIIHSEFPEEEVNNGLQLWINLPSTEKMTEPKYKELSSLDIPRAEENGVEVKVIAGDSMGIKSPVYTRTPTMFLDFTLKPGSQTHQTVPESWTAFAYIIEGDEGVFGSLNSSAISAHHVVVFGPGDLVSVWNKSTSRSLRFLLIAGEPIGEPVVQCGPFVMNSQAEIDMAFDDYQNAKNGFEMAKC | – | no quercetinase activity | 405-410 nm | specific cleavage of quercetin | 405-410 nm | binds | binds
